{"source": "paper PMC10013841", "about": "(Proceedings of the National Academy of Sciences of the …, 2023)", "binders": {"B1": {"name": "cyanovirin-N (natural protein)", "chain": "LGKFSQTCYNSAIQGSVLTSTCERTNGGYNTSSIDLNSVIENVDGSLKWQPSNFIETCRNTQLAGSSELAAECKTRAQQFVSTKINLDDHIANIDGTLKYE", "notes": "also called CV-N"}}, "target": "SARS-CoV-2 Spike S1 domain (amino acids 14 to 681), HEK293-produced (SARS-CoV-2, UniProt P0DTC2 14-681)", "experiment": "far-Western, overlay or dot blot", "details": "both partners purified"}
{"binder": "B1", "values": [{"measurement": "binding result", "value": "binds"}]}
